Numbering of substitutions follows the chain as printed. Each block holds one molecule with its values, some of them ahead of it.
Tests used:
Format in all cases: binding
[1] = molecular target: T1, Human commercial BCMA (Homo sapiens, UniProt Q02223); assay: BIAcore analysis J7 to J9 series, human commercial BCMA; conditions: 37° C.; for ka: in M-1s-1 (unit assumed); for kd: in s-1 (unit assumed)
T1 construct: purchased US Biological B0410
T1 sequence (Q02223 1-184): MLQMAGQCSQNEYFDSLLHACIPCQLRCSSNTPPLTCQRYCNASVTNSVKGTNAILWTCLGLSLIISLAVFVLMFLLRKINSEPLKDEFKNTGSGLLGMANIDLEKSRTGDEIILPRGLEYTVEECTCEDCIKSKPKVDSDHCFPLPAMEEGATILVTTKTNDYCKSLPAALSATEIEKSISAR
Protocol: Protein A was immobilised on a CMS chip (GE Healthcare, Cat No: BR-1005-30) by primary amine coupling and this surface was then used to capture the antibody molecules. Recombinant human BCMA (US Biological, B0410) was used as analyte at 256 nM, 64 nM, 16 nM, 4 nM and 1 nM. Regeneration of the capture surface was carried out using 50 mM NaOH. All binding curves were double referenced with a buffer injection (i.e. 0 nM) and the data was fitted to the using the 1:1 model inherent to T100 evaluation software. The run was carried out at 37° C., using HBS-EP as the running buffer.

[2] = test system: Cyno in house BCMA; assay: BIAcore analysis J7 to J9 series, cyno in house BCMA; conditions: 37° C.; for ka: in M-1s-1 (unit assumed); for kd: in s-1 (unit assumed)
[3] = molecular target: T2, Human in house BCMA (Homo sapiens, UniProt Q02223); assay: ProteOn analysis of CA8 chimeric and humanised constructs, human in house BCMA; conditions: for off rate: Run 2, ProteOn, recombinant human BCMA, no affinity values obtained; for KD / ka / kd: ProteOn, 25° C.; for ka: in M-1s-1 (unit assumed); for kd: in s-1 (unit assumed)
T2 construct: CD33 signal peptide (N); TEV site (internal); Fc (C); made in house
Protocol: (§1) The initial screen of CA8 chimeric and humanised variants was carried out on the ProteOn XPR36 (Biorad). The method was as follows; Protein A was immobilised on a GLC chip (Biorad, Cat No: 176-5011) by primary amine coupling, CA8 variants were then captured on this surface and recombinant human BCMA (in house or commercial US Biological, B0410) materials (run 2 only)) passed over at 256, 64, 16, 4, 1 nM with a 0 nM injection (i.e. buffer alone) used to double reference the binding curves, the buffer used is the HBS-EP buffer. 50 mM NaOH was used to regenerate the capture surface. The data was fitted to the 1:1 model using the analysis software inherent to the ProteOn XPR36. Run 1 corresponds to the first screen of humanised CA8 variants (JO to J5 series) and run 2 to the second screen of humanised CA8 variants (J5 to J9 series). Both runs were carried out at 25° C.

[4] = molecular target: Cyno in house BCMA; assay: ProteOn analysis of CA8 chimeric and humanised constructs, cyno in house BCMA; conditions: 25° C.; for ka: in M-1s-1 (unit assumed); for kd: in s-1 (unit assumed)
[5] = molecular target: T1, Human commercial BCMA; assay: ProteOn analysis of CA8 chimeric and humanised constructs, commercial human BCMA; conditions: Run 2, commercial human BCMA, 25° C.
Protocol: as §1

Sequence of Cyno in house BCMA (as listed by the source): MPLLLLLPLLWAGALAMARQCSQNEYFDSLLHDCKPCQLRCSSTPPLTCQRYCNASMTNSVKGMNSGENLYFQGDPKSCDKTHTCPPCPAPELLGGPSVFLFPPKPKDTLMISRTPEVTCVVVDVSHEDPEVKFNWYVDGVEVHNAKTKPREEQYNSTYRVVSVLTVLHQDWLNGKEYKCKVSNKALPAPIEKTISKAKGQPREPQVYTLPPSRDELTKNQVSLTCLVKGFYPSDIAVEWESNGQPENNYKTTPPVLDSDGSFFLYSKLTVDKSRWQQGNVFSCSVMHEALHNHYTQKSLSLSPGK
T2 sequence (Q02223 with tags, fused parts or gaps limits assumed): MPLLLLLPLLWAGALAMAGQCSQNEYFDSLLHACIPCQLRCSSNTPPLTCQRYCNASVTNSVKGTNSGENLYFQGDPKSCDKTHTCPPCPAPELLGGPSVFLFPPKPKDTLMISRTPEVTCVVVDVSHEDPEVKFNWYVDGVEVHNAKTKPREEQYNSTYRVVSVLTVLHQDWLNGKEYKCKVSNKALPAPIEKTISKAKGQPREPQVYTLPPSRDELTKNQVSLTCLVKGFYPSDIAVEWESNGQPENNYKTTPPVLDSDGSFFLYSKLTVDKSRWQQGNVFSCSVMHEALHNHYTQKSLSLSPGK

ka [1]: 1.96E+07 | kd [1]: 3.50E−04 | kd [2]: 2.99E−04 | off rate [3]: beyond the sensitivity of the assay
B1: CA8 humanised J9M1: humanised CA8 anti-BCMA antibody, VH J9 (SEQ ID NO:29) + VL M1 (SEQ ID NO:33) (antibody, V domains shown)
VH: QVQLVQSGAEVKKPGSSVKVSCKGSGYTFTNYWMHWVRQAPGQGLEWIGATYRGHSDTYYNQKFKGRATLTADTSTSTAYMELSSLRSEDTAVYYCTRGAIYDGYDVLDNWGQGTLVTVSS
VL: DIQMTQSPSSLSASVGDRVTITCSASQDISNYLNWYQQKPGKAPKLLIYYTSNLHSGVPSRFSGSGSGTDYTLTISSLQPEDFATYYCQQYRKLPWTFGQGTKLEIKR
modifications: Humansed antibody sequence
ka [2]: 6.77E+05

ka [1]: 2.37E+06 | kd [1]: 1.35E−04 | kd [2]: 4.47E−04 | off rate [3]: beyond the sensitivity of the assay
B5: CA8 humanised J7M2: humanised CA8 anti-BCMA antibody, VH J7 (SEQ ID NO:25) + VL M2 (SEQ ID NO:35) (antibody, V domains shown)
VH: B1 VH with G24A, I48M, A68V, L70I, T74K, T97A
VL: B1 VL with M4L, K45E, L47V
modifications: Humansed antibody sequence
ka [2]: 3.46E+05

kd ([4]; Run 1, Cyno in house BCMA): 6.46E−05 | ka ([3]; Run 1, Human in house BCMA): 2.04E+05 | kd ([3]; Run 1, Human in house BCMA): 1.72E−04
B7: CA8 humanised J2M1: humanised CA8 anti-BCMA antibody, VH J2 (SEQ ID NO:15) + VL M1 (SEQ ID NO:33) (antibody, V domains shown)
VH: B1 VH with G24A, I48M, A68V, L70I, T74K, D103N
VL: B1 VL
modifications: Humansed antibody sequence
ka ([4]; Run 1, Cyno in house BCMA): 2.96E+05

ka [1]: 2.35E+06 | kd [1]: 1.31E−04 | kd [2]: 3.91E−04 | off rate [3]: beyond the sensitivity of the assay
B10: CA8 humanised J7M1: humanised CA8 anti-BCMA antibody, VH J7 (SEQ ID NO:25) + VL M1 (SEQ ID NO:33) (antibody, V domains shown)
VH: B1 VH with G24A, I48M, A68V, L70I, T74K, T97A
VL: B1 VL
modifications: Humansed antibody sequence
ka [2]: 3.70E+05

Continued, molecule first:

B2: S307118G03 humanised H4L1: humanised S307118G03, VH H4 (SEQ ID NO:85) + VL L1 (SEQ ID NO:91) (antibody, V domains shown)
VH: QVQLVQSGAEVKKPGSSVKVSCKASGYTFTDYYMKWVRQAPGQGLEWMGEIYPNNGGITYNQKFKGRVTITADKSTSTAYMELSSLRSEDTAVYYCADGYEFVYWGQGTLVTVSS
VL: B1 VL with D28G, N53S, R92S
modifications: Humansed antibody sequence
KD ([4]; Run 1, Cyno in house BCMA): No | KD ([3]; Run 1, Human in house BCMA): No

B3: S307118G03 humanised H2L1: humanised S307118G03, VH H2 (SEQ ID NO:81) + VL L1 (SEQ ID NO:91) (antibody, V domains shown)
VH: B2 VH with D98N
VL: B1 VL with D28G, N53S, R92S
modifications: Humansed antibody sequence
KD ([4]; Run 1, Cyno in house BCMA): No | ka ([3]; Run 1, Human in house BCMA): 3.38E+05 | kd ([3]; Run 1, Human in house BCMA): 2.15E−03

B4: CA8 humanised J1M2: humanised CA8 anti-BCMA antibody, VH J1 (SEQ ID NO:13) + VL M2 (SEQ ID NO:35) (antibody, V domains shown)
VH: B1 VH with G24A, I48M, A68V, L70I, T74K, T97A, D103N
VL: B1 VL with M4L, K45E, L47V
modifications: Humansed antibody sequence
ka ([4]; Run 1, Cyno in house BCMA): 3.19E+05 | kd ([4]; Run 1, Cyno in house BCMA): 9.67E−05 | ka ([3]; Run 1, Human in house BCMA): 2.15E+05 | kd ([3]; Run 1, Human in house BCMA): 2.46E−04

B6: CA8 humanised J1M1: humanised CA8 anti-BCMA antibody, VH J1 (SEQ ID NO:13) + VL M1 (SEQ ID NO:33) (antibody, V domains shown)
VH: B1 VH with G24A, I48M, A68V, L70I, T74K, T97A, D103N
VL: B1 VL
modifications: Humansed antibody sequence
ka ([4]; Run 1, Cyno in house BCMA): 3.33E+05 | kd ([4]; Run 1, Cyno in house BCMA): 1.47E−04 | ka ([3]; Run 1, Human in house BCMA): 2.27E+05 | kd ([3]; Run 1, Human in house BCMA): 3.43E−04

B8: S307118G03 humanised H2L0: humanised S307118G03, VH H2 (SEQ ID NO:81) + VL L0 (SEQ ID NO:89) (antibody, V domains shown)
VH: B2 VH with D98N
VL: B1 VL with D28G, N53S, Y71F, R92S
modifications: Humansed antibody sequence
KD ([4]; Run 1, Cyno in house BCMA): No | ka ([3]; Run 1, Human in house BCMA): 3.78E+05 | kd ([3]; Run 1, Human in house BCMA): 2.41E−03

B9: S307118G03 H5L1: humanised S307118G03, VH H5 (SEQ ID NO:87) + VL L1 (SEQ ID NO:91) (antibody, V domains shown)
VH: B2 VH with M48I, V68A, I70L, A72V, D98N, V103D
VL: B1 VL with D28G, N53S, R92S
modifications: Humansed antibody sequence
KD [5]: V weak signal | KD ([4]; Run 2, Cyno in house BCMA): No | KD ([3]; Run 2, Human in house BCMA): No Analysable Binding

B11: S307118G03 H5L0: humanised S307118G03, VH H5 (SEQ ID NO:87) + VL L0 (SEQ ID NO:89) (antibody, V domains shown)
VH: B2 VH with M48I, V68A, I70L, A72V, D98N, V103D
VL: B1 VL with D28G, N53S, Y71F, R92S
modifications: Humansed antibody sequence
KD [5]: V weak signal | KD ([4]; Run 2, Cyno in house BCMA): No | KD ([3]; Run 2, Human in house BCMA): No Analysable Binding

B12: S307118G03 humanised H3L0: humanised S307118G03, VH H3 (SEQ ID NO:83) + VL L0 (SEQ ID NO:89) (antibody, V domains shown)
VH: B2 VH with M48I, V68A, I70L, A72V, D98N
VL: B1 VL with D28G, N53S, Y71F, R92S
modifications: Humansed antibody sequence
KD ([4]; Run 1, Cyno in house BCMA): No | ka ([3]; Run 1, Human in house BCMA): 2.86E+05 | kd ([3]; Run 1, Human in house BCMA): 1.52E−03

B13: S307118G03 humanised H3L1: humanised S307118G03, VH H3 (SEQ ID NO:83) + VL L1 (SEQ ID NO:91) (antibody, V domains shown)
VH: B2 VH with M48I, V68A, I70L, A72V, D98N
VL: B1 VL with D28G, N53S, R92S
modifications: Humansed antibody sequence
KD ([4]; Run 1, Cyno in house BCMA): No | ka ([3]; Run 1, Human in house BCMA): 4.69E+05 | kd ([3]; Run 1, Human in house BCMA): 2.28E−03
